The assay has as its target human B7-H1 (hB7-H1) on the cell surface (human) (UniProt Q9NZQ7). Briefly: cell-based or functional assay.
UniProt Q9NZQ7, sequence (Q9NZQ7 19-290 limits assumed): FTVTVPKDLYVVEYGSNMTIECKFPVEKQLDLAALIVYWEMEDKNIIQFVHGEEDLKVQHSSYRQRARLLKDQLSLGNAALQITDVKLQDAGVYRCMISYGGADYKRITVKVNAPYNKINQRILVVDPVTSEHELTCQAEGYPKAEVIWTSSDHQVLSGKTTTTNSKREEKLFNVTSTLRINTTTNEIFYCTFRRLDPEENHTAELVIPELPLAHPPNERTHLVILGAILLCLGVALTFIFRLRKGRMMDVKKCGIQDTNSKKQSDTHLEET

Substance 5H1 mAb specific for hB7-H1 (antibody) came in with an inhibition of apoptosis of M15 CTL cultured with B7-H1/624mel cells of more than 50%.

Source of the values: patent US7794710.
